Measurements reported in US5710252.

Biological target: FLAG epitope Trypsin site N-terminally tagged 9 repeat GG biopolymer (SEQ ID NO:20)

Trypsin (type XI DPCC treated) (enzyme)
completeness of the Trypsin cleavage reaction, by relative mobility on SDS gels: 100%
